Ends that are not written are not given here.
Biological target: recombinant mouse transferrin receptor (TfR) protein (mouse) (UniProt Q62351)
Test: SPR; Biacore 3000, CM5 chip, receptors immobilised by EDC/NHS coupling (TfR 58 fmol/mm^2, LRP-1 0.025 fmol/mm^2); peptides injected at 0.25-4 uM, 5 uL/min, 25°C, 10 mM HEPES, 150 mM NaCl, 1.5 mM CaCl2, 1 mM EGTA, 0.005% Tween 20, pH 7.4; Langmuir 1:1 model, global fit

Chain of recombinant mouse transferrin receptor (TfR) protein (mouse) (Q62351 whole entry): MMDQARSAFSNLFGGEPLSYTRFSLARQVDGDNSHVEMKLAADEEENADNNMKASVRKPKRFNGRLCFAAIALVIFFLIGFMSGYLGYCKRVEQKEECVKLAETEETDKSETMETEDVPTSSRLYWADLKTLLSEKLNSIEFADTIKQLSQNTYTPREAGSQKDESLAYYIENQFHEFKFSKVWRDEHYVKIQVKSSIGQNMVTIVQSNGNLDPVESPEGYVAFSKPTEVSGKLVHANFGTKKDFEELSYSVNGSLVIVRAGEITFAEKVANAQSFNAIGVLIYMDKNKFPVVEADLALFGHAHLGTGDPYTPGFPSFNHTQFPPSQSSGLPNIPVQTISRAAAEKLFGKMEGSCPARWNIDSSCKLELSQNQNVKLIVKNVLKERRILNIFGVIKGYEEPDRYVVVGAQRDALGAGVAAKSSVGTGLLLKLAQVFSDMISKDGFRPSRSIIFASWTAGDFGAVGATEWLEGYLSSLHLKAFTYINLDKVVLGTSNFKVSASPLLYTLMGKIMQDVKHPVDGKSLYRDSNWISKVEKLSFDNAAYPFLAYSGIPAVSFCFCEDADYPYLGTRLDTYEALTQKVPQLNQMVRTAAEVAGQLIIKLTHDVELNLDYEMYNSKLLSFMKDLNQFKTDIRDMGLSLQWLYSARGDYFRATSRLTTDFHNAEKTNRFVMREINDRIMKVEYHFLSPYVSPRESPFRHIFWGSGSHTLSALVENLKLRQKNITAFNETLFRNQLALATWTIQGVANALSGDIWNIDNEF

Kd: 1 mM
Binder: GYRPVHNIRGHWAPGK-NH2 [GYR (peptide 2)]
